In publication PMC2680606 (Biochemistry, 2009):

Target: Myc-UbcM2-His6 (mouse, UniProt P52483 1-207)
Test: pull-down

Myc-UbcM2-His6, sequence (P52483 whole entry): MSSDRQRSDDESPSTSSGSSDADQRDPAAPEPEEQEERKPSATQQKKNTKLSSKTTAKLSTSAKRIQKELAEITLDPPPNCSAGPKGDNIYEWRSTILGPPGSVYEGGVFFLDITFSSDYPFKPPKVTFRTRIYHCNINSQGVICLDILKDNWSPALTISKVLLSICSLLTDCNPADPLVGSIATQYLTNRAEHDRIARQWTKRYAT

fold binding against full-length RCBTB1: 2 fold
B1: ^35S-RCBTB1 fragment: BTB domain and C-terminal 87 residues (domain or fragment, human, UniProt Q8NDN9 360-531, looked up)
chain: LKKEFDSPETADLKFRIDGKYIHVHKAVLKIRCEHFRSMFQSYWNEDMKEVIEIDQFSYPVYRAFLQYLYTDTVDLPPEDAIGLLDLATSYCENRLKKLCQHIIKRGITVENAFSLFSAAVRYDAEDLEEFCFKFCINHLTEVTQTAAFWQMDGPLLKEFIAKASKCGAFKN
modifications: 35S-labelled methionine and cysteine
